Results reported in the supplement of paper PMC10126150.
± gives the standard deviation of the averaged measurements.

Test system: ATP
Experiment: switch fluorescence ratio, 500 uM ATP over buffer (Cy3 cluster intensity, sum of 5 cycles each) (fold (ratio)); higher = stronger signal-on switching upon ATP binding; sequences stand for … in TCGTCGGCAGCGTCAGATGTGTATAAGAGACAGTTTTTTTTTTTTTTTTTTTTTTTTT…TC
Settings: aptamer strand: ATP DNA aptamer (quencher-CACCTGGGGGAGTATTGCGGAGGAAGG + anchor), 100 nM annealed; ATP concentration: 500 uM
Procedure, shortened: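 Cy3-labelled switching-strand clusters on a modified Illumina MiSeq flow-cell were annealed to 100 nM quencher-labelled ATP aptamer, imaged in selection buffer, then imaged after 15 min with 500 uM ATP at 22 °C. Five buffer/ATP cycles ran, with NaOH stripping and re-annealing between them. The fluorescence ratio is summed target-cycle over summed buffer-cycle Cy3 intensity per cluster, averaged per switch-domain sequence. Clusters outside 100-1000 RFU were excluded.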
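Also: ATP exposure 15 min at 22 °C before imaging.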

Sequence | switch fluorescence ratio
TACGTGCTCC | 1.144 ± 0.0012
CTAGCTATGT | 1 ± 0.067
TCGGCTTCCT | 1.27 ± 0.031
TGATAATTGT | 1.01 ± 0.034
ACGGTATAGT | 1.1 ± 0.017
GGGCGTTTCG | 1.005 ± 0.0089
GCCTAAGGGA | 1 ± 0.0063
ATTTTGGTAT | 1.01 ± 0.027
GCTAGGTGAA | 1.21 ± 0.017
TGTGTAAAGT | 1.82 ± 1.2
CTGTCGAGTA | 1.13 ± 0.19
TCGTTGCAGG | 1.05 ± 0.092
AGTTTCGCTA | 0.992 ± 0.024
TCTTAGATGA | 0.9765 ± 0.003
ACAAGATGGG | 1.09 ± 0.082
GGGGGTTGAG | 1.03 ± 0.024
TGAAAATTCA | 1.05 ± 0.077
TTCCATGTTT | 1.06 ± 0.11
CAGGTAAGAG | 0.987 ± 0.013
AACAGCGGGA | 1.08 ± 0.068
CCCTGAGGGT | 1.01 ± 0.023
ATGGGTTCGC | 0.976 ± 0.035
TTTATAATTT | 0.981 ± 0.018

Sequence | switch fluorescence ratio
GCAGCACGCG | 1.03 ± 0.031
TTTGCCTTGG | 1.02 ± 0.018
TAGGTAATTT | 0.968 ± 0.041
ACTTAAGGTC | 1.001 ± 0.0035
GTAGGGAGTT | 0.977 ± 0.012
CGGGTTGCAT | 1.023 ± 0.0087
TGGGGCGC | 1.01 ± 0.097
ATCCGAGCAT | 4.654 ± 0.039
CGGGTATGCT | 0.959 ± 0.025
CAAAGGGCGG | 0.9985 ± 0.0012
GAGGATTAGA | 0.988 ± 0.015
TCTTTTTGGC | 1.01 ± 0.034
GAGTAGCGGA | 0.999 ± 0.042
AGTGACGCTC | 1.08 ± 0.024
GATGGGATGC | 1.07 ± 0.071
TTTTGCCCCC | 1.12 ± 0.14
AGGTTGGTTA | 0.984 ± 0.029
GGGCAAAATG | 0.981 ± 0.036
TAAAGCTAGG | 0.995 ± 0.065
GTAGTATGAG | 0.999 ± 0.014
AAAGACATGG | 0.989 ± 0.017
AAATCCGCG | 1.28 ± 0.031
AGGAGGTTAT | 1.01 ± 0.013

Sequence | switch fluorescence ratio
TACGTCAGTC | 1.05 ± 0.028
GATATTTTGA | 1.02 ± 0.019
TGTAATACGT | 1.17 ± 0.019
TAATAGGTTT | 1.1 ± 0.22
GGGAGTTAGG | 0.9609 ± 0.0049
CCATTAGTTG | 0.998 ± 0.02
ATTGGAGGTT | 0.995 ± 0.013
AACTAGAGTT | 0.99 ± 0.014
ATCCCCGGAG | 1.33 ± 0.12
AACCGGTTAG | 0.996 ± 0.011
ATATCTATTT | 0.997 ± 0.019
GAGGCGGACT | 1.02 ± 0.015
GGTTGCGCTT | 1.29 ± 0.39
TATGTATTCT | 1 ± 0.017
ATGTCGGGCA | 0.986 ± 0.064
TTGGGTAGGC | 0.985 ± 0.022
ACTAGCTACT | 1.138 ± 0.0094
GTTGGAAGCA | 1.1 ± 0.18
GATGCTCGAA | 0.989 ± 0.025
ATGTTAGTAC | 1.03 ± 0.058
GGGATATGTA | 1.01 ± 0.041
TGGGCGGGGT | 1.02 ± 0.031
TTGCCGGCTC | 1.03 ± 0.029

Sequence | switch fluorescence ratio
ATAAGACTGT | 1.03 ± 0.018
TGCTAGAGCT | 0.997 ± 0.011
GGTGCGGCTT | 1.007 ± 0.0072
TCTCAGAGTA | 1 ± 0.012
GCAAGGGGGT | 1.05 ± 0.053
TGCTTGCTGT | 0.991 ± 0.01
TTTTTGAGGG | 1.01 ± 0.04
TGCAGTGAAT | 0.999 ± 0.026
TAAGCGGGCT | 0.973 ± 0.024
ATTCTGTTTT | 0.986 ± 0.028
AATAATAGGC | 0.97 ± 0.012
TTGGCGCTGT | 0.971 ± 0.0017
TAAATCCGGG | 1 ± 0.022
AAGATAATAG | 0.993 ± 0.024
ATTTTGGTGA | 1 ± 0.035
AGAGCATACT | 2.12 ± 0.22
GTTAATAGTG | 0.988 ± 0.021
GGTATCCGTG | 1.019 ± 0.0085
TGAAGATGGG | 1 ± 0.019
GGTAGTTTCA | 0.9966 ± 0.00047
CGGTTTTTTA | 0.964 ± 0.025
TTTTACAGAT | 0.975 ± 0.017
GGGTTAAGGC | 1.01 ± 0.062

Sequence | switch fluorescence ratio
GAACGCGATT | 3.92 ± 1.3
TCTGGAGCCG | 1.04 ± 0.022
ATGGTGTTTT | 0.9803 ± 0.008
GACGTCGGGA | 1.012 ± 0.0021
GACATTCACC | 1.1 ± 0.016
ACTTATAATA | 1.04 ± 0.038
TGGTTTTTGT | 1.1 ± 0.2
AGCAACATTG | 1.01 ± 0.06
AGTTGTGAGT | 0.9726 ± 0.0077
CAGAGGATGC | 0.995 ± 0.0041
CAAATAGATG | 1 ± 0.029
AGGGATTGGT | 0.952 ± 0.019
TTTTTTAAGT | 0.995 ± 0.024
AATTTGTTTC | 0.972 ± 0.021
TACTTTTTGG | 0.9872 ± 0.0092
TGCATGAGCG | 1.02 ± 0.032
CTAGGTTATG | 0.978 ± 0.01
GCAAGATGGG | 0.983 ± 0.015
GGACAGGGGA | 1.87 ± 1.2
AGAAACGGAA | 1.27 ± 0.35
TGTTTGCCAG | 1 ± 0.05
CGGATTTTTT | 0.995 ± 0.021
TTGGTTTTCC | 1.01 ± 0.028

Sequence | switch fluorescence ratio
CTAGTGCCAG | 1.016 ± 0.0069
ATGGATTTAT | 0.992 ± 0.037
TAAGCTCAAT | 0.979 ± 0.012
TATAAATGGC | 1.01 ± 0.029
GGGTAGAGGG | 0.987 ± 0.049
GGTTATGGCC | 1.01 ± 0.031
CTTTGGAGAC | 1.06 ± 0.051
ATTACCCTCG | 1.02 ± 0.035
GATACTTCTA | 0.972 ± 0.026
AAAGGATAAG | 0.993 ± 0.038
AGGGTGAGGG | 0.984 ± 0.042
ATTTTTTTTT | 1 ± 0.026
AGTTTGTTGC | 1 ± 0.012
CGGGACGCGT | 1.021 ± 0.0039
ACGCGATTTT | 1.35 ± 0.46
TTGCGGCCTT | 1.09 ± 0.081
TAAGAGATGT | 0.978 ± 0.034
TCAGGGGTCT | 0.994 ± 0.011
GGGGGTACAT | 0.99 ± 0.011
AATTCCTGGT | 1.04 ± 0.023
AATTTCGGGA | 1.01 ± 0.044
GTTGAGAGGA | 0.9636 ± 0.0018
GCCATAGGAG | 0.987 ± 0.031

Sequence | switch fluorescence ratio
GCTGGGCGGA | 1.04 ± 0.039
GGCGCTTCGG | 0.967 ± 0.05
TACTATCGTT | 0.994 ± 0.01
TTCTAGGGGT | 0.966 ± 0.012
TTTTAGTCGG | 0.9883 ± 0.0092
GCCCATTGTG | 1.2 ± 0.072
GTTGAAGG | 0.9986 ± 0.0032
CTGCGGGCCG | 1.004 ± 0.0073
CATGTTGAAG | 0.986 ± 0.077
GTTAGAGGGA | 0.99589 ± 4.1e-05
CTTGTTAGCG | 0.9807 ± 0.0076
GGATTCGTAA | 0.998 ± 0.01
GATATGGGTG | 1.04 ± 0.049
ACTTTTTAGG | 1.01 ± 0.044
TCGGTCCCAG | 1.03 ± 0.014
CTGATCTGTT | 0.998 ± 0.024
AAGGGAACAA | 0.999 ± 0.048
TTTTACTAGA | 1.032 ± 0.0059
ATTAGGAAAT | 1.08 ± 0.1
